Data as given in paper PMC12207370, “Macrocyclic Peptide Probes for Immunomodulatory Protein CD59: Potent Modulators of Bacterial Toxin Activity and Antibody‐Dependent Cytotoxicity” (Angewandte Chemie (International Ed. in English), 2025).

Biological target: T1, biotinylated CD59 (Homo sapiens, UniProt P13987)
T1 construct: Recombinant soluble human CD59 with an additional C-terminal cysteine residue
T1 sequence (P13987 26-102 limits assumed): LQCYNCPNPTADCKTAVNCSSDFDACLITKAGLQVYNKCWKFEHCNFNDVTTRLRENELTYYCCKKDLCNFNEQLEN
Test: mRNA-display cyclic peptide screen against CD59-biotin, NGS abundance after 6th selection round
Settings: for Counts (raw counts for peptide sequence), Seq I: NGS sample Seq I; for Counts (raw counts for peptide sequence), Seq I / Counts (raw counts for peptide sequence), Seq II / Counts Seq I / Counts Seq II: sheet R6 (6th selection round); for Counts (raw counts for peptide sequence), Seq II: NGS sample Seq II; for Percentage of the pool, averaged across the two sequencing samples: average of Seq I and Seq II; for Percentage of the pool, averaged across the two sequencing samples / Percentage of the pool, Seq I / Percentage of the pool, Seq II / Percentage Seq I / Percentage Seq II / Percentage Average: sheet R6; for Percentage of the pool, Seq I: counts normalised by total counts of NGS sample Seq I; for Percentage of the pool, Seq II: counts normalised by total counts of NGS sample Seq II; for Percentage Seq I: counts normalised by total counts of sample Seq I; for Percentage Seq I / Percentage Seq II: percentage of the pool; for Percentage Seq II: counts normalised by total counts of sample Seq II; for Percentage Average: percentage of the pool averaged across the two sequencing samples; for Counts Seq I / Counts Seq II: raw NGS counts of peptide sequence; for Counts Seq I: sequencing sample Seq I; for Counts Seq II: sequencing sample Seq II
In short: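 Peptide–mRNA fusions were made by in vitro translation with a customised PURE express kit. The kit lacked release factor 1 and methionine and was supplemented with […] initiator tRNA carrying N-chloroacetyl-d-tyrosine. Thioether macrocycles were formed, then enriched and amplified over iterative rounds on CD59-biotin immobilised on streptavidin beads. NGS read counts per sequence were recorded after the 6th selection round.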

Sequence | Counts (raw counts for peptide sequence), Seq I | Counts (raw counts for peptide sequence), Seq II | Percentage of the pool, averaged across the two sequencing samples | Percentage of the pool, Seq I | Percentage of the pool, Seq II | Percentage Seq I | Percentage Seq II | Percentage Average | Counts Seq I | Counts Seq II
FVRGDLYSVIG | 54 | 6 | 0.013% | 0.012% | 0.014% | – | – | – | – | –
FVRGDRYSVLG | – | – | – | – | – | 0.045% | 0.039% | 0.042% | 198 | 17
RTCHLRHDGPHA | 59 | 6 | 0.014% | 0.013% | 0.014% | – | – | – | – | –
FVRGDLNSVLG | 69 | 5 | 0.014% | 0.016% | 0.012% | – | – | – | – | –
CFAARARNNQTV | – | – | – | – | – | 0.091% | 0.093% | 0.092% | 396 | 40
SSWAQVPCYS | – | – | – | – | – | 0.040% | 0.032% | 0.036% | 175 | 14
CFGGRTFIYAWS | 34 | 5 | 0.010% | 0.008% | 0.012% | – | – | – | – | –
LYSHPRSLCSFS | – | – | – | – | – | 0.082% | 0.091% | 0.086% | 357 | 39
DPYCPFFPEFR | 52 | 5 | 0.012% | 0.012% | 0.012% | – | – | – | – | –
HAFGSRDITYY | – | – | – | – | – | 0.246% | 0.272% | 0.259% | 1078 | 117
DSRNQCHTWKT | 87 | 6 | 0.017% | 0.020% | 0.014% | – | – | – | – | –
FISGSRSWRKQ | – | – | – | – | – | 0.036% | 0.023% | 0.030% | 159 | 10
AVWGSAHDRWE | – | – | – | – | – | 0.044% | 0.046% | 0.045% | 193 | 20
WTCHLRHDGPHA | – | – | – | – | – | 1.997% | 2.114% | 2.056% | 8737 | 911
CYGGQTFIYAWS | – | – | – | – | – | 0.026% | 0.030% | 0.028% | 114 | 13
CLRRHVTASDV | – | – | – | – | – | 0.040% | 0.023% | 0.031% | 174 | 10
VKYGNSNFVRG | – | – | – | – | – | 0.660% | 0.657% | 0.659% | 2889 | 283
FVRGDLYSVFG | – | – | – | – | – | 0.023% | 0.026% | 0.024% | 102 | 11
FVLGNRHTIVG | 57 | 6 | 0.013% | 0.013% | 0.014% | – | – | – | – | –
WRDRFDQCIL | 60 | 5 | 0.013% | 0.014% | 0.012% | – | – | – | – | –
CFTYRLSDEPSA | – | – | – | – | – | 0.039% | 0.016% | 0.027% | 169 | 7
YCWVRGSRNYT | – | – | – | – | – | 0.064% | 0.060% | 0.062% | 279 | 26
CAWGNRYIAYY | – | – | – | – | – | 0.078% | 0.067% | 0.073% | 342 | 29
